According to patent US10041047B2, “Compositions and methods for epithelial stem cell expansion and culture” (The Brigham and Women's Hospital, Inc., priority 2013, dated 2018):

How the values were obtained:
[1] = system: Lgr5+ stem cells in small intestinal crypts; assay: Small intestinal crypt culture from Lgr5-GFP mice in Matrigel: cell proliferation and Lgr5-GFP expression; type: cell-based, mouse; settings: for requirement of growth factor to maintain self-renewal of Lgr5+ stem cells: crypts 6 days in the CV condition (CHIR 3 μM, VPA 1 mM)
Method: Crypts and single Lgr5-GFP cells were isolated as previously described (Sato et al., 2009). Briefly, the proximal half of the small intestine was harvested, opened longitudinally, and washed with cold PBS to remove luminal content. The tissue was then cut into 2-4 mm pieces with scissors and further washed 5-10 times with cold PBS by pipetting up and down using a 10-ml pipette. Tissue fragments were incubated with 2 mM EDTA in PBS for 30 min on ice. After removal of EDTA, tissue fragments were washed with PBS to release crypts. Supernatant fractions enriched in crypts were collected, passed through a 70 μm cell strainer and centrifuged at 300 g for 5 minutes. The cell pellet was re-suspended with cell culture media without growth factors and centrifuged at 150 g to remove single cells. Crypts were then cultured or used for single cell isolation. To obtain single cells, crypts were incubated in culture medium for 45 minutes at 37° C. and triturated with a glass pipette. Dissociated cells were passed through 20 μm cell strainer, negative stained with propidium iodide and single viable GFP-high cells were sorted by flow cytometry (FACS Aria, BD) as previously described (Sato et al., 2009). Small intestinal crypts isolated from Lgr5-EGFP-ires-CreERT2 mice were embedded in Matrigel and cultured under conventional culture conditions in the presence of EGF, Noggin and R-spondin 1 (collectively referred to as ENR) leading to organoids with crypts and villus-like domains and GFP^+ cells at the crypt tips, consistent with previous reports (Sato et al., 2009). Isolated crypts or single cells were cultured as previously described (Sato et al., 2009) with minimal modification. Briefly, crypts or single cells were entrapped in Matrigel and plated at the center of wells in a 24-well plate. After polymerization of Matrigel (growth factor reduced; BD Bioscience), 500 μl of culture medium (Advanced DMEM/F12 (Life Technologies)) was added containing growth factors including EGF (50 ng/ml, Life Technologies), Noggin (100 ng/ml, Peprotech) and R-spondin 1 (500 ng/ml, R&D) and small molecules including CHIR99021 (3 μM, Stemgent) and Valproic Acid (1 mM, Sigma-Aldrich). For comparison of different culture conditions, small molecules or growth factors were added to freshly isolated crypts immediately after plating in Matrigel to test the ability to minimize potential differentiation of the ISC within the crypts and thus sustain crypt cultures. Cell culture media was changed every other day. For single cell culture, cells were embedded in Matrigel containing Jagged-1 peptide (1 μM; AnaSpec) and Y-27632 (10 μM; Tocris) was added for the first 2 days. Cells were passaged either as cell colonies as previously described (Sato et al., 2009) or as single cells. […]

[2] = system: Lgr5+ stem/progenitor cells derived from the mouse inner ear; assay: Culture of inner ear (cochlear) Lgr5-GFP epithelial cells in Matrigel; type: cell-based; settings: 8 day cultures; added to EGF+CV or to the EGF+bFGF combination (FIG. 14D, 14E)
Source text: The same culture condition (EGF, Noggin, R-spondin1, or “ENR”) as used in Lgr5+ small intestinal stem cell cultures was first established.
Isolated organ of Corti from Lgr5-GFP mice were dissociated into single cells using accutase and cultured in multiple combinations of soluble factors and small molecules in Matrigel for 8 days. The resulting cultures were further dissociated into single cells and analyzed using FACS. […] In addition, the combination of EGF, bFGF and IGF-1 (designated as EFI) improved cell proliferation and GFP expression compared with the ENR condition (FIG. 14A-14C).
To further investigate the effects of individual growth factors when combined with CHIR and VPA, growth factors including Mitogenic growth factors (EGF, bFGF and IGF-1) as well as the Wnt agonist R-spondin 1 in combination with CHIR and VPA were tested.

B1: R-Spondin 2: agent that binds to the LGR5 receptor (protein, UniProt Q6UXX9 22-243, looked up)
R-spondin-2: QGNRWRRSKRASYVSNPICKGCLSCSKDNGCSRCQQKLFFFLRREGMRQYGECLHSCPSGYYGHRAPDMNRCARCRIENCDSCFSKDFCTKCKVGFYLHRGRCFDECPDGFAPLEETMECVEGCEVGHWSEWGTCSRNNRTCGFKWGLETRTRQIVKKPVKDTILCPTIAESRRCKMTMRHCPGGKRTPKAKEKRNKKKKRKLIERAQEQHSVFLATDRANQ
organoid formation (number of organoids formed at day 5) ([1]; ENR condition, R-spondin 2 compared to R-spondin 1 at multiple concentrations): better efficacy at lower concentrations

B2: Noggin: inhibitor of Bone Morphogenic Proteins (protein, UniProt Q13253 28-232, looked up)
Noggin: QHYLHIRPAPSDNLPLVDLIEHPDPIFDPKEKDLNETLLRSLLGGHYDPGFMATSPPEDRPGGGGGAAGGAEDLAELDQLLRQRPSGAMPSEIKGLEFSEGLAQGKKQRLSKKLRRKLQMWLWSQTFCPVLYAWNDLGSRFWPRYVKVGSCFSKRSCSVPEGMVCKPSKSVHLTVLRWRCQRRGGQRCGWIPIQYPIISECKCSC
requirement of growth factor to maintain self-renewal of Lgr5+ stem cells [1]: still required

B3: R-spondin 1: agent that binds to the LGR5 receptor, Wnt agonist (protein, UniProt Q2MKA7 21-263, looked up)
R-spondin-1: SRGIKGKRQRRISAEGSQACAKGCELCSEVNGCLKCSPKLFILLERNDIRQVGVCLPSCPPGYFDARNPDMNKCIKCKIEHCEACFSHNFCTKCKEGLYLHKGRCYPACPEGSSAANGTMECSSPAQCEMSEWSPWGPCSKKQQLCGFRRGSEERTRRVLHAPVGDHAACSDTKETRRCTVRRVPCPEGQKRRKGGQGRRENANRNLARKESKEAGAGSRRRKGQQQQQQQGTVGPLTSAGPA
GFP expression on addition of a growth factor [2]: slightly increased
requirement of growth factor to maintain self-renewal of Lgr5+ stem cells [1]: still required

B4: Wnt3a: Wnt pathway activator protein (protein, UniProt P56704 19-352, looked up)
Protein Wnt-3a: SYPIWWSLAVGPQYSSLGSQPILCASIPGLVPKQLRFCRNYVEIMPSVAEGIKIGIQECQHQFRGRRWNCTTVHDSLAIFGPVLDKATRESAFVHAIASAGVAFAVTRSCAEGTAAICGCSSRHQGSPGKGWKWGGCSEDIEFGGMVSREFADARENRPDARSAMNRHNNEAGRQAIASHMHLKCKCHGLSGSCEVKTCWWSQPDFRAIGDFLKDKYDSASEMVVEKHRESRGWVETLRPRYTYFKVPTERDLVYYEASPNFCEPNPETGSFGTRDRTCNVSSHGIDGCDLLCCGRGHNARAERRREKCRCVFHWCCYVSCQECTRVYDVHTCK
cell proliferation of crypt cells (organoid size and cell numbers) ([1]; crypts cultured 6 days, agent added to ENR condition, compared to ENR): increased crypt proliferation
